# Laboratory results published in patent publication US7115410.
# B1: full length β-secretase (clone 27; 1-501) (protein)
# chain: TQHGIRLPLRSGLGGAPLGLRLPRETDEEPEEPGRRGSFVEMVDNLRGKSGQGYYVEMTVGSPPQTLNILVDTGSSNFAVGAAPHPFLHRYYQRQLSSTYRDLRKGVYVPYTQGKWEGELGTDLVSIPHGPNVTVRANIAAITESDKFFINGSNWEGILGLAYAEIARPDDSLEPFFDSLVKQTHVPNLFSLQLCGAGFPLNQSEVLASVGGSMIIGGIDHSLYTGSLWYTPIRREWYYEVIIVRVEINGQDLKMDCKEYNYDKSIVDSGTTNLRLPKKVFEAAVKSIKAASSTEKFPDGFWLGEQLVCWQAGTTPWNIFPVISLYLMGEVTNQSFRITILPQQYLRPVEDVATSQDDCYKFAISQSSTGTVMGAVIMEGFYVVFDRARKRIGFAVSACHVHDEFRTAAVEGPFVTLDMEDCGYNIPQTDESTLMTIAYVMAAICALFMLPLCLMVCQWRCLRCLRQQHDDFADDISLLK
# B2: β-secretase purified from human brain (naturally occurring) (protein)
# chain: ETDEEPEEPGRRGSFVEMVDNLRGKSGQGYYVEMTVGSPPQTLNILVDTGSSNFAVGAAPHPFLHRYYQRQLSSTYRDLRKGVYVPYTQGKWEGELGTDLVSIPHGPNVTVRANIAAITESDKFFINGSNWEGILGLAYAEIARPDDSLEPFFDSLVKQTHVPNLFSLQLCGAGFPLNQSEVLASVGGSMIIGGIDHSLYTGSLWYTPIRREWYYEVIIVRVEINGQDLKMDCKEYNYDKSIVDSGTTNLRLPKKVFEAAVKSIKAASSTEKFPDGFWLGEQLVCWQAGTTPWNIFPVISLYLMGEVTNQSFRITILPQQYLRPVEDVATSQDDCYKFAISQSSTGTVMGAVIMEGFYVVFDRARKRIGFAVSACHVHDEFRTAAVEGPFVTLDMEDCGYNIPQTDESTLMTIAYVMAAICALFMLPLCLMVCQWRCLRCLRQQHDDFADDISLLK
# B3: FLp501 (full length recombinant β-secretase having a C-terminal flag sequence) (protein)
# chain: TQHGIRLPLRSGLGGAPLGLRLPRETDEEPEEPGRRGSFVEMVDNLRGKSGQGYYVEMTVGSPPQTLNILVDTGSSNFAVGAAPHPFLHRYYQRQLSSTYRDLRKGVYVPYTQGKWEGELGTDLVSIPHGPNVTVRANIAAITESDKFFINGSNWEGILGLAYAEIARPDDSLEPFFDSLVKQTHVPNLFSLQLCGAGFPLNQSEVLASVGGSMIIGGIDHSLYTGSLWYTPIRREWYYEVIIVRVEINGQDLKMDCKEYNYDKSIVDSGTTNLRLPKKVFEAAVKSIKAASSTEKFPDGFWLGEQLVCWQAGTTPWNIFPVISLYLMGEVTNQSFRITILPQQYLRPVEDVATSQDDCYKFAISQSSTGTVMGAVIMEGFYVVFDRARKRIGFAVSACHVHDEFRTAAVEGPFVTLDMEDCGYNIPQTDESTLMTIAYVMAAICALFMLPLCLMVCQWRCLRCLRQQHDDFADDISLLKDYKDDDDK
# B4: 452stop (recombinant β-secretase extending from position 1 to 452) (protein)
# chain: TQHGIRLPLRSGLGGAPLGLRLPRETDEEPEEPGRRGSFVEMVDNLRGKSGQGYYVEMTVGSPPQTLNILVDTGSSNFAVGAAPHPFLHRYYQRQLSSTYRDLRKGVYVPYTQGKWEGELGTDLVSIPHGPNVTVRANIAAITESDKFFINGSNWEGILGLAYAEIARPDDSLEPFFDSLVKQTHVPNLFSLQLCGAGFPLNQSEVLASVGGSMIIGGIDHSLYTGSLWYTPIRREWYYEVIIVRVEINGQDLKMDCKEYNYDKSIVDSGTTNLRLPKKVFEAAVKSIKAASSTEKFPDGFWLGEQLVCWQAGTTPWNIFPVISLYLMGEVTNQSFRITILPQQYLRPVEDVATSQDDCYKFAISQSSTGTVMGAVIMEGFYVVFDRARKRIGFAVSACHVHDEFRTAAVEGPFVTLDMEDCGYNIPQTDEDYKDDDDK
# How the values were obtained:
# [1] = biological target: APP 751 with the Swedish mutation (APPsw), P05067
# [2] = biological target: APP 751 wild type (expressed from pohCK751), P05067
# [3] = biological target: MBP-C125sw (maltose-binding protein fused to the last 125 amino acids of APP, Swedish double mutation) [MBP: P0AEX9]
# [4] = biological target: MBP-C125 (maltose-binding protein fused to the last 125 amino acids of APP), P05067
# [5] = biological target: T1, P26-P4′sw substrate ((biotin)CGGADRGLTTRPGSGLTNIKTEEISEVNLDAEF) (not fully specified)
# T1 chain: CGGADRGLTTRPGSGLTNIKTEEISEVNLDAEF
# MBP-C125 (maltose-binding protein fused to the last 125 amino acids of APP), P05067, sequence (P05067 whole entry, looked up, the tested form may be a part): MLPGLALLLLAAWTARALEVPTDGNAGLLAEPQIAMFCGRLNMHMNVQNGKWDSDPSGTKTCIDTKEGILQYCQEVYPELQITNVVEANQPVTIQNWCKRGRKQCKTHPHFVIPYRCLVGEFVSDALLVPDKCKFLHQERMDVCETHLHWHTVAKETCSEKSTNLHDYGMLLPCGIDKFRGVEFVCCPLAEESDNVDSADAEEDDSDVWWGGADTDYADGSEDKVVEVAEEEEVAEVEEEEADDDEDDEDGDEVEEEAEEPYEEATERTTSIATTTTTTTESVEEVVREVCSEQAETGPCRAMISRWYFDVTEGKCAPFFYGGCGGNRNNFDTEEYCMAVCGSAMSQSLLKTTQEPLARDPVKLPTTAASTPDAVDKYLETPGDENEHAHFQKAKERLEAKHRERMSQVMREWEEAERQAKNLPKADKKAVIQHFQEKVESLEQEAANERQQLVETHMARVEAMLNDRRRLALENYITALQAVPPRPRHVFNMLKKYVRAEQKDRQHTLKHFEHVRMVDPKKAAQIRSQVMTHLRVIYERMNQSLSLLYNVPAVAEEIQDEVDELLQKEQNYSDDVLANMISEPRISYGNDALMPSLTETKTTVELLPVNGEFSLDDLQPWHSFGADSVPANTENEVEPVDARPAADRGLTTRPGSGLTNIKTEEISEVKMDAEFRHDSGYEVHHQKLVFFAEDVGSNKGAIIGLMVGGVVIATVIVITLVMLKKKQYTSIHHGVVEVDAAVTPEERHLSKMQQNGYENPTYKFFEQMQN
# APP 751 wild type (expressed from pohCK751), P05067, sequence (P05067 whole entry, looked up, the tested form may be a part): as above
# APP 751 with the Swedish mutation (APPsw), P05067, sequence (P05067 whole entry, looked up, change not shown): as the sequence (P05067 whole entry, looked up, the tested form may be a part) above
protein,measurement,setting,value
B1,Aβ(x-40) production (ELISA of conditioned media),[1],approximate 2-fold increase in Aβ(x-40)
same,Aβ(x-40) production (ELISA of conditioned media),[2],approximately 8-fold increase in Aβ(x-40) production
B2,"Specific Activity (MBP-C125sw assay), Affinity Eluate (nM/h/µg prot.)",[3],258000
same,"Specific Activity (MBP-C125sw assay), Anion Exchange Pool (nM/h/µg prot.)",[3],1.49e+06
B3,cleavage of substrate,[4],Both enzymes exhibited activity in cleaving β-secretase substrates such as MBP-C125
B4,cleavage of substrate,[4],Both enzymes exhibited activity in cleaving β-secretase substrates such as MBP-C125
same,cleavage of substrate,[3],exhibited activity in cleaving the MBP-C125sw substrate
same,cleavage of substrate,[5],exhibited activity in cleaving the MBP-C125sw substrate as well as the P26-P4′ substrate
